What was measured:
Assay in all cases: ELONA
Settings in all cases: stem-loop (predicted)
[1] = molecular target: Botulinum neurotoxin type B light chain (UniProt B1INP5 B1INP5:2-441)
[2] = molecular target: Botulinum neurotoxin type B holotoxin (BoNT B HT) (UniProt B1INP5;B1INP5 B1INP5:2-441,B1INP5:442-1291)
[3] = molecular target: Botulinum neurotoxin type A light chain (50 kDa zinc endopeptidase) (UniProt P0DPI1 P0DPI1:2-448)
[4] = molecular target: Botulinum neurotoxin type A holotoxin (BoNT A HT) (UniProt P0DPI1;P0DPI1 P0DPI1:2-448,P0DPI1:449-1296)
Sequence of Botulinum neurotoxin type A holotoxin (BoNT A HT) (P0DPI1 2-448, chain 1 of 2): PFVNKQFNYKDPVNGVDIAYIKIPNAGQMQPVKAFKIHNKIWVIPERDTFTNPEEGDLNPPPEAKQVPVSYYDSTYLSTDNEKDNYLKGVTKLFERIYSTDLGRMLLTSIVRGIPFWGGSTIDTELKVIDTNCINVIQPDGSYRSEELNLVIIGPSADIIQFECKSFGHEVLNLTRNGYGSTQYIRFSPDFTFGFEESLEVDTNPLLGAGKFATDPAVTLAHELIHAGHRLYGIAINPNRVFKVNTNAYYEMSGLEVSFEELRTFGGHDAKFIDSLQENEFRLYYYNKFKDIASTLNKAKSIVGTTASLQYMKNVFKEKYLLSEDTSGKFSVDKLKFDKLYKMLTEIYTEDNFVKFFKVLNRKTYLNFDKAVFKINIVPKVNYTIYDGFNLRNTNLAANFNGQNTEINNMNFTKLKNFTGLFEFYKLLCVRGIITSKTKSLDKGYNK
Sequence of Botulinum neurotoxin type A holotoxin (BoNT A HT) (P0DPI1 449-1296, chain 2 of 2): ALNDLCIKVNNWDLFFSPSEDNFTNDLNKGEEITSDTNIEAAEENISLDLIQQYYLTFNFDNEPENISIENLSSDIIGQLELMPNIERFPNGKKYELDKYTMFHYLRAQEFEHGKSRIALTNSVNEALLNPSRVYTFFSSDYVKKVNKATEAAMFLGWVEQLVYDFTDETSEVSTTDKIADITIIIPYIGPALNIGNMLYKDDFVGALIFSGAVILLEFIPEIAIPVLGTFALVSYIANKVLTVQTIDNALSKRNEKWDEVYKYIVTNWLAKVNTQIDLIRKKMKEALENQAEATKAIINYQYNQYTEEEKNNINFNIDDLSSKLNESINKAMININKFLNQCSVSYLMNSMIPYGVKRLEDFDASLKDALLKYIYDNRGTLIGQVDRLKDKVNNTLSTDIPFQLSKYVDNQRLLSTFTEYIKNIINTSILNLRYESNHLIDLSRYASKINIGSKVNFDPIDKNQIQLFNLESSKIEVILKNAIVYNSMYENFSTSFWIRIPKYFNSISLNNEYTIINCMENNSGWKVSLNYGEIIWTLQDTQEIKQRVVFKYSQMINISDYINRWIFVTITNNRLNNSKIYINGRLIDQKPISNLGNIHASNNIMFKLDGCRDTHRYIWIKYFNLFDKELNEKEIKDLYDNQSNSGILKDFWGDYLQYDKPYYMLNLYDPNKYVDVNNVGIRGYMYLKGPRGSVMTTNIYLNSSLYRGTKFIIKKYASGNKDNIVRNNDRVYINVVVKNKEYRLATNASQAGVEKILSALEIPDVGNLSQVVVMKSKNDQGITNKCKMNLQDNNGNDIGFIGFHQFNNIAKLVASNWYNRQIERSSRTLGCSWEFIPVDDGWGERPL

Measured: binding result

Sequence of Botulinum neurotoxin type B holotoxin (BoNT B HT) (B1INP5 2-441, chain 1 of 2): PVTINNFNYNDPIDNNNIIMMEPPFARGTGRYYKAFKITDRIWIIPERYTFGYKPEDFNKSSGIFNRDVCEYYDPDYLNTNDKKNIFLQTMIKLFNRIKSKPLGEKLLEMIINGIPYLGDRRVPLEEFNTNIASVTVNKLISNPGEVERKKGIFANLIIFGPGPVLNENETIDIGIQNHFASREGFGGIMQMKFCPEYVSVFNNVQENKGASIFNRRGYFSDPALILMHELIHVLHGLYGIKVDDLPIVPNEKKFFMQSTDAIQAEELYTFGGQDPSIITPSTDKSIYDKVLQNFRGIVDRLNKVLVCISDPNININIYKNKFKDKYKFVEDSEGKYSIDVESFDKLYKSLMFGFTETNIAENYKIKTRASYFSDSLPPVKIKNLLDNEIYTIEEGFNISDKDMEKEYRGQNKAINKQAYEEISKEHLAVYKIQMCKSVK
Sequence of Botulinum neurotoxin type B holotoxin (BoNT B HT) (B1INP5 442-1291, chain 2 of 2): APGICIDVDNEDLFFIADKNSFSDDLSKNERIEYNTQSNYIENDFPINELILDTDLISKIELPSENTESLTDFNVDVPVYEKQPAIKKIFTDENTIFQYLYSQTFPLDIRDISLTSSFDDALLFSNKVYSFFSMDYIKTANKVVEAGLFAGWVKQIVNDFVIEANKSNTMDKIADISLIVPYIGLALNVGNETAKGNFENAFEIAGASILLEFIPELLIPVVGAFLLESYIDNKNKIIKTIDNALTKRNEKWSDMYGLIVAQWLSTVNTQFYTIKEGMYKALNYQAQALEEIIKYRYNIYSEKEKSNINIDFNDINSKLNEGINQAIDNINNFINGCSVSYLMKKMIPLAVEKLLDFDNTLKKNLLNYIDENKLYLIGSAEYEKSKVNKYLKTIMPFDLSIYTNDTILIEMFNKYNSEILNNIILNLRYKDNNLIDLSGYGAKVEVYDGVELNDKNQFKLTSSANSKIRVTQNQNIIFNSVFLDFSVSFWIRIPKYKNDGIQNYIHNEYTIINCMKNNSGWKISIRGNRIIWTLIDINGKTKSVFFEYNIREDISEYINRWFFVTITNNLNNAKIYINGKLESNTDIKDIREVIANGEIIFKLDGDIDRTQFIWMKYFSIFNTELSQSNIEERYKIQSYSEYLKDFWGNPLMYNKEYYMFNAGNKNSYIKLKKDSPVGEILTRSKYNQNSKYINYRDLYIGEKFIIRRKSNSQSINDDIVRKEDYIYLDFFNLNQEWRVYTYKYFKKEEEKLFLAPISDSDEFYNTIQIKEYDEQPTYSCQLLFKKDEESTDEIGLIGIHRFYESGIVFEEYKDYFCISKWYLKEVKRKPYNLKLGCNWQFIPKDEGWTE
Sequence of Botulinum neurotoxin type B light chain (B1INP5 2-441, one chain of several): as the sequence (B1INP5 2-441, chain 1 of 2) above
Sequence of Botulinum neurotoxin type A light chain (50 kDa zinc endopeptidase) (P0DPI1 2-448, one chain of several): as the sequence (P0DPI1 2-448, chain 1 of 2) above

B1: BoNT A/B LC aptamer (ssDNA)
DNA: CATCCGTCACACCTGCTCTGATCAGGGAAGACGCCAACACTGGTGTTGGCTCCCGTATCA
binds: [1] | [2] | [3] | [4]

B2: BoNT A/B HT aptamer (ssDNA)
DNA: CATCCGTCACACCTGCTCTGCTATCACATGCCTGCTGAAGTGGTGTTGGCTCCCGTATCA
binds: [1] | [2] | [3] | [4]
